The values below come from patent US20140322196A1.

Common to all, as to test: cell-based or functional assay
The target of assay [1] is Hemagglutinin (HA) of Influenza A virus A/Solomon 3/2006 H1N1 (inactivated subunits, vaccine) (Influenza A virus A/Solomon 3/2006 H1N1).
Assay [2] concerns the target Hemagglutinin (HA) of Influenza A virus A/Parma/24/09 (Brisbane-like) (oseltamivir-resistant) H1N1 (Influenza A virus A/Parma/24/09 H1N1).
The target of assay [3] is Hemagglutinin (HA) of Influenza A virus A/Wisconsin/67/2005 H3N2 (inactivated subunits, vaccine) (Influenza A virus A/Wisconsin/67/2005 H3N2).

For “Lactoferrin from bovine milk (bLf) (from UniProt P24627 20-708)”, the HI titre in assay [1] was determined as 5000 fM; in assay [2] it was 6000 pM; in assay [3], 300 fM.

As for “… (SEQ ID NO: 2), bLf C-lobe peptide 506-522”, the values for the HI titre in assay [1], in assay [2] and in assay [3] were 46.5 fM, 1.4 pM and 11.6 fM, respectively.

Consider “… (SEQ ID NO: 1), bLf C-lobe peptide 418-429”, for which the HI titre in assay [1] is 46.5 fM; in assay [2], 1.4 pM; in assay [3], 23.2 fM.
